The target in assay [1] is soluble extracellular domain of EGFR (sEGFR) (UniProt P00533). Nature of the assay: SPR competition: Fab11F8 added to 600 nM sEGFR, passed over immobilized EGF.
Assay [2] deals with isolated domain III of sEGFR (sEGFRd3) (UniProt P00533). Nature of the assay: SPR (BIAcore 3000), sEGFRd3 passed over immobilized Fab11F8, equilibrium analysis. (In general: In SPR one partner is held on a chip, and binding of the other changes the refractive index at the surface.)
Assay [3] deals with soluble extracellular domain of EGFR (sEGFR) (UniProt P00533). The assay can be described thus: SPR (BIAcore 3000), sEGFR passed over immobilized Fab11F8, equilibrium response, one-site Langmuir fit.

Sequence of antibody 11F8 Fab fragment (VH): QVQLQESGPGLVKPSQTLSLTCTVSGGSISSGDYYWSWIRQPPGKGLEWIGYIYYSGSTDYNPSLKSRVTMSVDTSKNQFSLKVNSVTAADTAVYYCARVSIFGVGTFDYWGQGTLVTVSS
Sequence of antibody 11F8 Fab fragment (VL): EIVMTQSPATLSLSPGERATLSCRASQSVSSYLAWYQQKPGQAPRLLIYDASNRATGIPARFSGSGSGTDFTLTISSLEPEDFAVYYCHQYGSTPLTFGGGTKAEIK

Take antibody 11F8 Fab fragment: the half-inhibitory concentration (IC50) – broadly, the concentration that gives 50% inhibition – in assay [1] is 100 nM. The Kd (usually a measure of binding affinity in units of concentration) in assay [2] was found to be 1 nM; in assay [3], 3.3 nM.

For the origin of these results see patent US20100086540A1.
